Laboratory results published in PMC3919030.

Columns and labels:
Conditions in all cases: remark: other sources report otherwise
[1] = molecular target: T1, S. cerevisiae Vps4p (wild type) (S. cerevisiae), P52917; assay: SEC
T1 chain: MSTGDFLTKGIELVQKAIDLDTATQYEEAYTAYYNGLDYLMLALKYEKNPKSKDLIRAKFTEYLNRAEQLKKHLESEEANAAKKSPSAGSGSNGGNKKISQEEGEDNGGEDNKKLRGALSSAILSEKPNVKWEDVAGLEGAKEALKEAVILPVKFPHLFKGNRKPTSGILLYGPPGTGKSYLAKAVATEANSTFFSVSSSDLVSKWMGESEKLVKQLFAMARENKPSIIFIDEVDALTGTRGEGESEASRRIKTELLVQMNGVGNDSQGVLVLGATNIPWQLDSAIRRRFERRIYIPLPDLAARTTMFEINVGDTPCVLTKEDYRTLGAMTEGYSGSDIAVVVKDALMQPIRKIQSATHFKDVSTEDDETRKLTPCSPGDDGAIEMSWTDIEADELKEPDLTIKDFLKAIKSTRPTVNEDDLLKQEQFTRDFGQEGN

[2] = molecular target: T1, S. cerevisiae Vps4p (wild type) (S. …); assay: SEC
[3] = molecular target: T1, S. cerevisiae Vps4p (wild type) (S. …); assay: SEC
[4] = molecular target: T1, S. cerevisiae Vps4p (wild type) (S. …); assay: SEC
[5] = molecular target: T1, S. cerevisiae Vps4p (wild type) (S. …); assay: AUC
[6] = molecular target: T1, S. cerevisiae Vps4p (wild type) (S. …); assay: AUC

Measured: stoichiometry N

B1: S. cerevisiae Vps4p (wild type), P52917 1-437 (enzyme)
chain: T1 chain
6: all assays above
